# Laboratory results as given in the DeepSol protein solubility set.
# Experiment: soluble on expression in E. coli; label from the status in PepcDB or PDB records
row,Sequence,soluble on expression in E. coli
1,MSLSENIAAYVGLDVHKETLAVAIAAPERLGEVRYYGTINNEAQAVRRLFQKLQGLYGNILSCYEAGPCGFGLYHQLTAMNIKCQVIAPSRIPKSPTDRIKNDHRDAISLARLLRAGELTPVWIPDLTHEAMRDLIRARAAAKRDSRVARQRILSMLLRTDKHYAGKHWTGKHRTWLANQSFSQPSQQIAFQHYCQSLEQIEDRILQLDQEISRLLPEWSLCNLVCQLQALKGVGQLIAITLVAELGDFSRFSNPKQLMAFLGLVPGEYSSGNSIRPRGITKVGNSELRRLLYEAAWSYRTPAKVGAWLIYYRPDSVTQYSKDIAWKAQQRLCSRYRSLTAKGKKSQVAITAVARELTGFMWDIALAEGHHHHHH,not soluble
2,MTGQAAGPAAGPAAGQATKHAGGRRPGETRTREAILTAARVCFAERGFDATSLRRIAETAGVDQSLVHHFYGTKENLFLQALELPGKIEEAITAAAQGGLDGIGERVVRAHLSVWDDVSSRPALMTMVRSAAIHRAAAARLRETATGILARALGGVITGEDAMLRTSMVATQLVGLAMMRYVAHLEPLASADTDTVARHYGRAVQAIVTDRD,soluble
3,MAHHHHHHMERRSEWVASLRSTLPQFSKRSAAPLERGNAAAILGPAPRRTLDKALSSHNTTSSLLLPSEWCEQATQRLITTLHGIVPPLQVQQTDYFLCSLIHPSYVQASTMRCESEALRRRVQQELRRTVCMPLELTMTGSKSLRLLRELTHYVEQGAAAAATSARARATLPAAPVAGRSEARDPSYGPSSWSSYPLDASWPELHSADSTAFVQAFQRAGLDSLVLYDKSFFAASSTLTDNISGAGSAEVSLAAFTALCGSIELVSGWCSLLQFVDRVASEQRGLERNTDGHE,not soluble
4,MGHHHHHHSHSAAKGTGITRKKTFKEVANAVKISASLMGTVMAKRVKATILYGSETGRAQSYAQQLGRLFRKAFDPRVLCMDEYDVVSLEHETLVLVVTSTFGNGDPPENGESFAAALMEMSGPYN,not soluble
5,REEYYVWDKEASINFIKPGQSDLFAEFEITDGMLDEIYQMTRNGEKCFPEFITHVKDKQGNVVSEVQRKLYVRKKPQYREEEAVTEVP,not soluble
6,MAKLRPYYEESQSAYDISDDFFALFLDPTWVYTCAYFERDDMTLEEAQLAKVDLALDKLNLEPGMTLLDVGCGWGGALVRAVEKYDVNVIGLTLSRNHYERSKDRLAAIGTQRRAEARLQGWEEFEENVDRIVSFEAFDAFKKERYLTFFERSYDILPDDGRMLLHSLFTYDRRWLHEQGIALTMSDLRFLKFLRESIFPGGELPSEPDIVDNAQAAGFTIEHVQLLQQHYARTLDAWAANLQAARERAIAVQSEEVYNNFMHYLTGCAERFRRGLINVAQFTMTK,soluble
7,MSLHGELDKIYETLALAERRGPGPVDLLLCCGDFQAVRNEADLRCMAVPPKYRHMQTFYRYYSGEKKAPVLTLFIGGNHEASNHLQELPYGGWVAPNIYYLGLAGVVKYRGVRIGGISGIFKSHDYRKGHFECPPYNSSTIRSIYHVRNIEVYKLKQLKQPIDIFLSHDWPRSIYHYGNKKQLLKTKSFFRQEVENNTLGSPAASELLEHLKPTYWFSAHLHVKFAALMQHQAKDKGQTARATKFLALDKCLPHRDFLQILEIEHDPSAPDYLEYDIEWLTILRATDDLINVTGRLWNMPENNGLHARWDYSATEEGMKEVLEKLNHDLKVPCNFSVTAACYDPSKPQTEGHHHHHH,soluble
8,MSLLLEPSAAMIKEQKLYREMGLTDEEFARIEAILGRLPNYTETGIFAVMWSEHCSYKNSKPVLKKFPTDGPHVLQGPGEGAGIVDIGDGLAVAFKIESHNHPSAIEPYQGAATGVGGIIRDVFSMGARPIALLNSLRFGELTSPRVKYLFEQVVAGIAGYGNCVGIPTVGGEVQFDPAYEGNPLVNAMCVGIIRHEDIQRGVATGVGNTVMYVGAKTGRDGIHGATFASEELSEQSEAKRPAVQVGDPFMEKLLLEACLEAVKSDALVGIQDMGAAGLTSSSAEMASKGGFGIEMNLDLVPQREAGMTPYEMMLSESQERMLLVVKQGCEDEIAAIFAKYGLEAKAIGKVTDDKMLRLFFRGEVAAEIPVDALAKDAPVYHKPSAEPAYYREFQAMPPYIPHIEDYNQTLLGLLAQPTIASKEWVYDQYDYMVRTNTVVAPGSDAAVVRIRGTNKALALTTDCNSRYLYLDPETGGKIAVAEAARNVVCSGAKPLAITDCLNFGSPEKPEIFWQLEKAVDGMSEACRALGTPVVSGNVSLYNETNGEAVYPTPVVGMVGLIDDLSHITTQSFKQAGDLIYVIGEAKPEFGGSELQKWLEGRIFGKAPEIDLEVEASRQRQLLAAIRAGVVASAHDIAEGGLAVALAECVMGASGLGAKVTIGGDLVSELFSETQSRFVVSVKKEQKEAFEQLVEAKQIGEVTDDGAFVVNGEHGETLIHLSVAKMRNVWKGAIPCLLKSKD,not soluble
9,MSAHDRKEPAQRCPAALAAERLQIGLEHCGISADVHQGYGVSLVSVWTNLVVWTDGLAYRWWTGKISAKTGRRLYRVYAVDNPITVAHCVAQRYEELRKASHHSRGVVERTS,not soluble
10,PWDSENTIYDKVDQTKRFIEDVVKSFKQNNAILGWILTNEISLVRIPQNDNIFLRWLRELYNYIKRIDDQHLISVGDNVSPFSHNFLRPENVKGIVDYASPHIYQYDQDPIRHSIRYFMILEYDRSAGLPVILEEFG,not soluble
11,MCIAIPGRIERIDYPIAIVDFKGLKKEVRIDLLENPQIGDYVLVHVGMAIQKVDEEEAKKTWELLERVADETGNQAF,not soluble
12,MARHVFLPPLSVHRHRPHPLGVCGFESFQTLHPRKRAARPDSRPLYELCRHTCLQDFPKIRHPLCRHGTQQHHYARFGAPAPMAAYEKCGGTRRRTSRRQPPFRTRPATQIRLRMAVPPPTYWAEYSTDRLNKEKKNNKPHFVFCTVSHLRRLKGHDVLLTAFARALAQCPQLRLNIGGSGQEEQRLKQQAADLGITHAVTFLGALQPEAVLDLMRNSDAFVLASRTETFGVVYIEALSQGLPVIATRCGGAESIVSDGNGYLVPVDDDDALADALIKMCEHHSDFEPARLRENCLNEFGENAVIGRLIGIFRQAIAEYGKKIPVKYSGLTKIRTRRRSRRQYK,not soluble
13,MVTKTTLASATSGLLLLAVVAMSGCTPRPQGPGPAAEKFFAALAIGDTASAAQLSDNPNEAREALNAAWAGLQAAHLDAQVLSAKYAEDTGTVAYRFSWHLPKDRIWTYDGQLKMARDEGRWHVRWTTSGLHPKLGEHQTFALRADPPRRASVNEVGGTDVLVPGYLYHYSLDAGQAGRELFGTAHAVVGALHPFDDTLNDPQLLAEQASSSTQPLDLVTLHADDSNRVAAAIGQLPGVVITPQAELLPTDKHFAPAVLNDVKKAVVDELDGKAGWRVVSVNQNGVDVSVLHEVAPSPASSVSITLDRVVQNAAQHAVNTRGGKAMIVVIKPSTGEILAIAQNAGADADGPVATTGLYPPGSTFKMITAGAAVERDLATPETLLGCPGEIDIGHRTIPNYGGFDLGVVPMSRAFASSCNTTFAELSSRLPPRGLTQAARRYGIGLDYQVDGITTVTGSVPPTVDLAERTEDGFGQGKVLASPFGMALVAATVAAGKTPVPQLIAGRPTAVEGDATPISQKMIDALRPMMRLVVTNGTAKEIAGCGEVFGKTGEAEFPGGSHSWFAGYRGDLAFASLIVGGGSSEYAVRMTKVMFESLPPGYLA,not soluble
14,MLSCRDLVIRQGGKVLWQNLTFTISAGERVGIHAPSGTGKTTLGRVLAGWQKPTAGDVLLDGSPLPLHQYCPVQLVPQHPELTFNPWRSAGDAVRDAWQPDPETMRRLHVQPEWLTRRPMQLSGGELARIAILRALDPRTRFLIADEMTAQLDPSIQKAIWVYVLEVCRSRSLGMLVISHQSALLDQVCTRHLQVE,not soluble
15,MGSDKIHHHHHHMAEVFHERLKSPIPTRELARRSRELQAVMKKENIDCILAQNITQYMGGCNRWLTDTTAENHYPQSSFLTKDGDIGYIACSGPPLDLYPPSHLLRIGKPWAAAPYFSVFNFTWDWEGRLFVKWVQENNVQKVGIAGMEMIMWNYYNYIAEKLPGVEIVDASSLFDEIRAVKSEDEIKFLEKSAALQDKVMGYLPALIQPGVREYEVRAKIMQLVTDHGGEEMIVIMGSAPRGEKFSLLPSFFQNRELQTGDELYVKLQCSGPGGLFTTVGRMFSIGCEPSGALEQGWREAAAAQEKLAGLLQVGADPQVIFGQYNAYLESKGYNQETGLFVYGQGYDHIERPSIQPGETMKLAKDMCLAANTSLISAERTVYCADSFILKPSGPQKLHRTPLTIFRT,not soluble
16,ALLAVSMVACTSDEIALIEAMSKTSEISSYEGNSKIQLSFKGQGFSEKTQKVFDFLASYVDGFTFEANQKYSSNDEKTKATLAMDGNVDMQGLSVKYKYWTDMDFTTENPSLIQIVELPPAITQPMFTFANTGTKKYITIDYGSVLSAENNGGISLNPENLAKNSVELQEMLLDFVKTTAKDFDPGMVAVTKKGSAVTDKGEKVTEYELKLDDAAAKKLLHAFINDVILQEDTIEFGKKYMEAAINMYDFPEEEKQEALDEINKGLDEFASQLPAYRDSVTQVFESIKDVKFFGDKGLVAKYYINNDGFLVGGKSSIDIKIKMADFAALLGDNFDEKDKNGVLYLTIDAESSVYNINKEVSIELPEITEENSFDVLKGFMPILSGIGSAPGIGEEDYTYDIPALSDGINVVMNGKVVYFPDVKPENVNGRVLVPIRTISEEMGAEVTYNDATKQVLIAKDDTEILLTIGSQEAYVNGEKIMLDVPAMIIEGRTMVPLRFISESMNATVEWDGEAQIVYIFY,not soluble
17,RDIKDLIVALDIGTSKVVAVVAEILPEGRFEVLGLGQHESRGMRKGVVVNIETTVNSIQRALEEAELMADCKIRDVYAGIAGSHIRSFNSSGMVAVKDKEVTATDVARVIETAKAVNIPTDQ,not soluble
18,MGHHHHHHSHMNKDLLRRVLVLMNSKHTFLALCALRFMRRIIGLKDEFYNRYITKGNLFEPVINALLDNGTRYNLLNSAVIELFEFIRVEDIKSLTAHIVENFYKALESIEYVQTFKGLKTKYEQEKDRQNQKLNSVPSILRSNRFRRDAKALEEDEEMWFNEDEEEEGKAVVAPVEKPKPEDDFPDNYEKFMETKKAKESEDKENLPKRTSPGGFKFTFSHSASAANGTNSKSVVAQIPPATSNGSSSKTTNLPTSVTATKGSLVGLVDYPDDEEEDEEEESSPRKRPRLGS,not soluble
19,MATSKILLYYAFTPLSDPKAVQLWQRELCESLNLRGRILISTHGINGTVGGDIDDCKAYIKKTREYPGFNRMQFKWSEGGAEDFPKLSVKVRDEIVAFGAPDELKVDENGVVGGGVHLKPQQVNELVEARGDEVVFFDGRNAMEAQIGKFKDAVVPDVETTHDFIAEIESGKYDDLKDKPVVTYCTGGIRCEILSSLMINRGFKEVYQIDGGIVRYGEQFGNKGLWEGSLYVFDKRMHMEFGEDYKEVGHCIHCDTPTNKFEHCLNEDDCRELVLMCPDCFANVETRHCKRERCAAIAADFAEQGIDPLVTSLEHHHHHH,soluble
20,GTTKISVPVPPPDANFPPSAAPVFYNPEMELNRDINVAATAAFVERLLSKKDILREEIRYVDAFSASGIRGLRIAGEVGIHSTMNDWSHEAFELIKENIKINGLEEKAQATRRNANVLLHEQRFHIVDVDPFGTPSPYLDAAASSAYSMLSVTATDTAPLCGAHLNSGIRKYASVPLNTEYHSEMGLRVLLGACARELAKHEKGMLPLLSHVTRHYVRTYLEVLPGSRKADKTLKSMGFVAHCPRCGFRKPVYGLAVHIEKECPECGGLTKIAGPLWLGPYREPEFCNEVISELEAHPLNTKEKVRKIITFCRDELDIPMFYDQHVICKELGASATGIESLIEALRAGGFEASRTHFTGTSFKTDAPIAEIKKIILALSG,not soluble
21,MATDTTVQLRAGWQGRFYEDFAVGDVYKHPYGRTVTETDNVWFTNLTMNANPMHFNAAYASGTEFDERLVNGLFVIALSVGMSVVDVSANATANLGYDDIQHHAPVFHGDTLFAESEVLSKRESESRPHVGMVTTELRTYTQDGELVLSLERTPMVRKRGAADPLEHHHHHH,not soluble
